Laboratory results reported in FireProtDB (doi:10.1529/biophysj.106.101162).
Values joined by “and” are separate entries in the source; they are usually repeats but may differ in a detail not shown here. Identical values can stand only once.

Details: Thermus thermophilus, 20 °C, GdnHCl, CD, Sodium acetate 50 mM, reversible: Yes, whole UniProt chain shown

B1: Cytochrome c oxidase subunit 2 wild type, P98052 (protein)
chain: AYTLATHTAGVIPAGKLERVDPTTVRQEGPWADPAQAVVQTGPNQYTVYVLAFAFGYQPNPIEVPQGAEIVFKITSPDVIHGFHVEGTNINVEVLPGEVSTVRYTFKRPGEYRIICNQYCGLGHQNMFGTIVVKE
pH 3.5
  unfolding free energy: 2.85 kcal/mol and 2.2 kcal/mol
pH 4
  unfolding free energy: 3.15 kcal/mol and 2.61 kcal/mol
pH 4.5
  unfolding free energy: 3.56 kcal/mol and 2.84 kcal/mol and 2.73 kcal/mol
pH 5
  unfolding free energy: 6.38 kcal/mol and 6.69 kcal/mol and 4.15 kcal/mol
pH 5.5
  unfolding free energy: 9.01 kcal/mol
pH 6
  unfolding free energy: 15.9 kcal/mol and 13.2 kcal/mol and 5.97 kcal/mol
pH 7
  unfolding free energy: 20.2 kcal/mol and 15.4 kcal/mol
